Assays:
Settings in all cases: both partners purified
[1] = molecular target: T1, human Rab7 (residue 2-195) Q67L, GTP-loaded (human, UniProt P51149 2-195, Q67L); assay: ITC; 20 °C; 20 mM Tris-HCl pH 7.5, 150 mM NaCl; 1 mM ORP1 ANK in the syringe, 0.1 mM Rab7 or Rab7-RILP in the cell; Rab7 Q67L with 0.5 mM GTP, Rab7 T22N with 0.5 mM GDP; independent binding model
T1 construct: Ras-related protein Rab-7a, human, UniProt P51149, residues 2-195, dominant active mutant Q67L; Loaded with 0.5 mM GTP for ITC; also called Rab7 Q67L; dominant active Rab7; source: E. coli BL21(DE3), purified (Ni-NTA, SEC)

[2] = molecular target: T2, human Rab7 (residue 2-195) T22N, GDP-loaded (human, UniProt P51149 2-195, T22N); assay: as above
T2 construct: Ras-related protein Rab-7a, human, UniProt P51149, residues 2-195, dominant negative mutant T22N; Loaded with 0.5 mM GDP for ITC; also called Rab7 T22N; dominant negative Rab7; source: E. coli BL21(DE3), purified (Ni-NTA, SEC)

[3] = molecular target: T3, human Rab7 (residue 2-195) Q67L Δ73, GTP-bound (human, UniProt P51149 2-195, Q67L | Δ73); assay: crystal structure; ORP1 ANK (5-152) with GTP- and Mg2+-bound Rab7 (2-195) Q67L Δ73; 2.1 Å; two heterodimers in the asymmetric unit
T3 construct: Ras-related protein Rab-7a, human, UniProt P51149, residues 2-195, Q67L and deletion of Leu73 in switch II; 0.5 mM MgCl2 and GTP were added before crystallisation; also called Rab7 Q67L Δ73; Rab7 (Q67L, Δ73); source: E. coli BL21(DE3), purified (Ni-NTA, SEC)
T3 sequence (P51149 other isoform, or with tags, fused parts or gaps Q67L | Δ73 | Q67L | Δ73 | Q67L Q67L): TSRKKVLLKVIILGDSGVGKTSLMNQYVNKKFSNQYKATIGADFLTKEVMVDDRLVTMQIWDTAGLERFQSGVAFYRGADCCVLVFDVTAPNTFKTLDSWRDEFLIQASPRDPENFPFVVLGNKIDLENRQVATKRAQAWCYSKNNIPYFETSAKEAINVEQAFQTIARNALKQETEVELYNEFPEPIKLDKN

T1 sequence (P51149 2-195 Q67L): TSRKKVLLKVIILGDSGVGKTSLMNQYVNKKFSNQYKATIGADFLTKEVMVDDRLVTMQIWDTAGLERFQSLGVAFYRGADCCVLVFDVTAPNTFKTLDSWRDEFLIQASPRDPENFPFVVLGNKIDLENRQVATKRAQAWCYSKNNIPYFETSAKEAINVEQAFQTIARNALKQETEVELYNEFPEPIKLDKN
T2 sequence (P51149 2-195 T22N): as the sequence (P51149 2-195 Q67L) above, with T21N, L66Q counted along it

Kd [1]: 9.3 µM | stoichiometry N [1]: 1 | binding result [2]: binds | binding result [3]: binds
B1: human ORP1 ANK domain (residue 5-152) (domain or fragment, UniProt Q9BXW6-1 5-152, looked up)
chain: AEQQLLHHARNGNAEEVRQLLETMARNEVIADINCKGRSKSNLGWTPLHLACYFGHRQVVQDLLKAGAEVNVLNDMGDTPLHRAAFTGRKELVMLLLEYNADTTIVNGSGQTAKEVTHAEEIRSMLEAVERTQQRKLEELLLAAAREG
notes: The His tag was cut off with thrombin (site LVPR/GS); A longer ANK construct (5-233) was also cloned; also called small ORP1 ANK construct; source: E. coli BL21(DE3), purified (Ni-NTA, SEC); not shown: His6, N-terminal, cleaved
